The values that follow come from publication PMC5035049, “Solution Structure of the Cuz1 AN1 Zinc Finger Domain: An Exposed LDFLP Motif Defines a Subfamily of AN1 Proteins” (PLoS ONE, 2016).

The assay has as its target T1, 12xHis-SUMO-Cdc48 (S. cerevisiae, UniProt P25694 1-835).
T1 construct: Cdc48, multifunctional ATPase, S. cerevisiae, full length; also called 12xHis-Sumo-tagged Cdc48; p97 in higher organisms
Briefly: pull-down; GST-tagged Cuz1 species added to 12xHis-Sumo-tagged Cdc48 or to beads alone; bound Cuz1 seen by SDS-PAGE and anti-Cuz1 immunoblot; as previously described in ref. 7. Conditions: both partners purified. On the technique in general: In western blotting, separated proteins are transferred to a membrane and probed.

Substitutions are numbered along the chain they refer to.

T1 sequence (P25694 whole entry): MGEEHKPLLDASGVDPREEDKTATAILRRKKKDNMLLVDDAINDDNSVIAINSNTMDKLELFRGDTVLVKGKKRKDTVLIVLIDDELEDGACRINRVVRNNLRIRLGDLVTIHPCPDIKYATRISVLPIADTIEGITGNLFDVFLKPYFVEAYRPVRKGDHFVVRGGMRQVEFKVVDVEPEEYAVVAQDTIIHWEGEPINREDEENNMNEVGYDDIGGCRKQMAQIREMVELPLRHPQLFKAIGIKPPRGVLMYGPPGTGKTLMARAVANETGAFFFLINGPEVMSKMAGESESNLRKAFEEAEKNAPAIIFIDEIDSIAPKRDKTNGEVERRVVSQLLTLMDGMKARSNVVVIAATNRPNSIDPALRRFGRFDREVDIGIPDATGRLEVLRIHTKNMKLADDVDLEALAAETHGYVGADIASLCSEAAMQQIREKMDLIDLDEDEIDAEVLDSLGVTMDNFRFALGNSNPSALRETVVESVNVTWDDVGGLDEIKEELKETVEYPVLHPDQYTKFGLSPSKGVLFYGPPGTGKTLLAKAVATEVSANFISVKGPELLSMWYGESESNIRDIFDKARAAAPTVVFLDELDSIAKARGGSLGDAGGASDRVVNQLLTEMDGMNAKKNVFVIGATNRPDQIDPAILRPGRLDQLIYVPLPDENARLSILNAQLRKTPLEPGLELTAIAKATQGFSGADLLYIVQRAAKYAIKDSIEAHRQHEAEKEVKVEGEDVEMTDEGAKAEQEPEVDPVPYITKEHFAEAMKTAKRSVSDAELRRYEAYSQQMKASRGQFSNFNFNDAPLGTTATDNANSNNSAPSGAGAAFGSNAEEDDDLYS

B1: GST-Cuz1, full length wild type (plasmid pJH150) (natural protein, S. cerevisiae, UniProt P53899 1-274, looked up)
chain: MSAAIEKETGMLDVGKHCAYCRQLDFLPFHCSFCNEDFCSNHRLKEDHHCRWLLEHEEVHKTEKSPSKSRDGSSSNDEAYFKSLLPERASVRIQRVSETREPLRGSNTAKVSSTLNSKTLDKIFKFFQRNEKRKSNNKSKKNFGSSSNKIIQLANLKKIAKGDPKIPMQNRIYIWCYLVDGDETDIAKEDTRMPLYINKMWPVGRAMDYLSIQLNVKSSTLTNSSSNDKFQLCKLKEGKQVSFYNIGASLRVTNEIKDLDTLYLVHNNADEKSN
notes: Cuz1 (systematic name Ynl155w), S. cerevisiae, 274 amino acids, full length; also called Ynl155w; GST-tagged Cuz1
For the molecule B1, the binding result was “binds”.

B2: GST-Cuz1 LDFL→AAAA, full length (plasmid pJH171) (natural protein, S. cerevisiae, UniProt P53899 1-274, looked up)
chain: B1 chain with L24A, D25A, F26A, L27A
notes: Cuz1 (systematic name Ynl155w), S. cerevisiae, 274 amino acids, full length, with LDFL (L24, D25, F26, L27) changed to AAAA; Made by site-directed mutagenesis of pJH150; also called Cuz1^LDFL→AAAA mutant; Cuz1 LDFL mutant
For the molecule B2, the binding result is on record as “binds”.
